Data as given in patent US7211424B1, “Mammalian Subtilisin/kexin isozyme SKI-1: a proprotein convertase with a unique cleavage specificity” (Institut de Recherches Cliniques de Montreal, priority 1999, dated 2007).
Read-outs that look alike come from different tables or passages of the source. Where no end group is shown, it is not given here. [ ]: non-standard residue; d: D form. Tyr(3-NO2) = N[C@@H](Cc1ccc(O)c([N+](=O)[O-])c1)C(=O)O; 2Abz = Nc1ccccc1C(=O)O

Assays:
SKI-1 = target: T1, SKI-1 (Homo sapiens, UniProt Q14703); format: cell-based; design: The VV recombinant of full-length hSKI-1 has been described (10); expressed in transfected cells; host or cells: COS-7 cells co-infected with vv:BDNF and vv:SKI-1 (with vv:WT, vv:PIT or vv:PDX)
T1 sequence (Q14703 187-1052): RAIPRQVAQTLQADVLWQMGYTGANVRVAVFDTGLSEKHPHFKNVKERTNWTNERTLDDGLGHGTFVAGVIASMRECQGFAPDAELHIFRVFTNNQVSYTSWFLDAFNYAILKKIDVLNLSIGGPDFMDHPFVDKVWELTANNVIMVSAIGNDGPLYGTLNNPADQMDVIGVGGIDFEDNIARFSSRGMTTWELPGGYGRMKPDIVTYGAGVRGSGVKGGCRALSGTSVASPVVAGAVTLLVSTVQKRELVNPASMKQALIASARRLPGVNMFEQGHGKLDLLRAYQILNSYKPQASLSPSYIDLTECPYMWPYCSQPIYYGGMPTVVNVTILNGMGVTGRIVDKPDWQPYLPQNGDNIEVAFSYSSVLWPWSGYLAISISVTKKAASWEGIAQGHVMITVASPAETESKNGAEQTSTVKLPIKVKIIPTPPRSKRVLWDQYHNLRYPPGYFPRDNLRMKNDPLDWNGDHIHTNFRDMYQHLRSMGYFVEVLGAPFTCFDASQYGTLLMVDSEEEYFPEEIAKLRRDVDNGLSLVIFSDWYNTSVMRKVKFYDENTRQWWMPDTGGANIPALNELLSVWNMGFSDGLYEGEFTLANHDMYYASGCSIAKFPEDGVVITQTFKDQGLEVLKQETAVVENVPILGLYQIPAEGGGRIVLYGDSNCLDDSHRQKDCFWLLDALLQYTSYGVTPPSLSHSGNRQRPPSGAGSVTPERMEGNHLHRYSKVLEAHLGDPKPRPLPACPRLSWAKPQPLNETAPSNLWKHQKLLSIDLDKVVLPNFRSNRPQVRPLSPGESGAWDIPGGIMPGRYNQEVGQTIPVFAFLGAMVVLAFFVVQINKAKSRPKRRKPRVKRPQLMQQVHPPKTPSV

[1] = test system: endogenous furin-like enzyme(s); experiment: Ex vivo proBDNF processing in COS-7 cells: 14 kDa BDNF; format: cell-based
BTMD-SKI-1 [2] = target: T2, BTMD-SKI-1 (Homo sapiens, UniProt Q14703); experiment: pH optimum and calcium dependence of peptide cleavage by BTMD-SKI-1; format: biochemical
T2 sequence (Q14703 187-997 limits assumed): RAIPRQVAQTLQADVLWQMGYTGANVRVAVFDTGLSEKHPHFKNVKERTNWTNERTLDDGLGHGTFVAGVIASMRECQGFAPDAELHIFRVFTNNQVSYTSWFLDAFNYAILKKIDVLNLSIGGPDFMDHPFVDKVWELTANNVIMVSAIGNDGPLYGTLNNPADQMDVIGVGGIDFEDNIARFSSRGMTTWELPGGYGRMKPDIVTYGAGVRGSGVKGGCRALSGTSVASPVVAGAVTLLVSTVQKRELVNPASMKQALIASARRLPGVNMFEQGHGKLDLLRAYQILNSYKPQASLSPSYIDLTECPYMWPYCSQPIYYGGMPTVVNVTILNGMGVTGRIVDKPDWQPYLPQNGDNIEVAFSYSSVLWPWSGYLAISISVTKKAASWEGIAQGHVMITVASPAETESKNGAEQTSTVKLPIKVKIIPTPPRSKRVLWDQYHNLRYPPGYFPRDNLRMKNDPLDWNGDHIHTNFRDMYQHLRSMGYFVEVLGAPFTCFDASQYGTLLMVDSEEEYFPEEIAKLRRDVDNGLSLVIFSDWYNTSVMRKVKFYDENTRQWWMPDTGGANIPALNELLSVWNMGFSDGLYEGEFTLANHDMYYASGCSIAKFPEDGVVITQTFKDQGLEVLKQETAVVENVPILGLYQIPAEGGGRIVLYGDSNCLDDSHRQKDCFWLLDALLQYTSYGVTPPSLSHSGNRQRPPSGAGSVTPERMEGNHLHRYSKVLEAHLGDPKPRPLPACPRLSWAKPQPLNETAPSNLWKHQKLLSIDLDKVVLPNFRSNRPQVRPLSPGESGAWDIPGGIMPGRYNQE
T2 sequence (Q14703 17-137 partner limits assumed): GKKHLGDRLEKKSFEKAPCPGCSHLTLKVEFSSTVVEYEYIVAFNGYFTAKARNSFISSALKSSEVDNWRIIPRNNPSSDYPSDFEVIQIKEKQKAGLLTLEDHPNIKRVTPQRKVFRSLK
Experimental: pH Optimum, Calcium-Dependence and Inhibitor Profile—The protocols used were essentially the same as reported previously (13). Stocks of the buffer described above were adjusted to pH 5.0–8.5 at 0.5 unit increments by addition of either acetic acid or sodium hydroxide. In order to investigate the calcium requirement of SKI-1, increasing concentrations of Ca^2+-acetate were used ranging from 0 to 10 mM.

BTMD-hSKI-1 = target: T3, BTMD-hSKI-1 (Homo sapiens, UniProt Q14703); format: biochemical
T3 sequence (Q14703 187-997 limits assumed): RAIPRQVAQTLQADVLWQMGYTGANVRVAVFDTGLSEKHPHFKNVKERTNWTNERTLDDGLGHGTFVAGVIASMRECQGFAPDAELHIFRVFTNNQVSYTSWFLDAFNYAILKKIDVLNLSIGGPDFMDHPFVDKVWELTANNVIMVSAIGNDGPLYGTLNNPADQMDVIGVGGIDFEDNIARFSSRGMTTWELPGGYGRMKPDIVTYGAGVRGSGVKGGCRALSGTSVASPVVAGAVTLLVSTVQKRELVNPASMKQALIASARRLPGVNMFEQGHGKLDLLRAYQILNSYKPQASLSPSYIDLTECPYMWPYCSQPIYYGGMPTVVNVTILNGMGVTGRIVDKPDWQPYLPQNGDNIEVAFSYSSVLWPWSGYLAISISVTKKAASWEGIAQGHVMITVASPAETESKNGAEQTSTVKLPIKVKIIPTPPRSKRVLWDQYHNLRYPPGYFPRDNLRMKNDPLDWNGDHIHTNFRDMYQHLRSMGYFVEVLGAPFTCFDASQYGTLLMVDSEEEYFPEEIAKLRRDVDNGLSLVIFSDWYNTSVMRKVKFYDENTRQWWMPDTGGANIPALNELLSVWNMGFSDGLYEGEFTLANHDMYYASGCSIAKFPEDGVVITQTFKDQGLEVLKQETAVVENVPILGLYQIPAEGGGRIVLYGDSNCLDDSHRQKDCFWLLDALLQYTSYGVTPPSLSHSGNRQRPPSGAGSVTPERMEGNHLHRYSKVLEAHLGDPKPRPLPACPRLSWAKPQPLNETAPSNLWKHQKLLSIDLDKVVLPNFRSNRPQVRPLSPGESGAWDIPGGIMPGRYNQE

BTMD-SKI-1 [3] = target: T4, BTMD-SKI-1 (human, UniProt Q14703 187-997); experiment: Ki(app) from Dixon plots; inhibition of peptide IV hydrolysis by BTMD-SKI-1 medium (RP-HPLC), prosegment preincubated with the enzyme for 30 min
T4 construct: The construct encodes aa 1-997 plus hexa-His; It was secreted from VV-infected BSC40 or LoVo cells and used as concentrated medium or after metal chelation purification; The secreted enzyme stays associated with the ~14 kDa prosegment fragment; also called bSKI-1; BTMD-hSKI-1
T4 sequence: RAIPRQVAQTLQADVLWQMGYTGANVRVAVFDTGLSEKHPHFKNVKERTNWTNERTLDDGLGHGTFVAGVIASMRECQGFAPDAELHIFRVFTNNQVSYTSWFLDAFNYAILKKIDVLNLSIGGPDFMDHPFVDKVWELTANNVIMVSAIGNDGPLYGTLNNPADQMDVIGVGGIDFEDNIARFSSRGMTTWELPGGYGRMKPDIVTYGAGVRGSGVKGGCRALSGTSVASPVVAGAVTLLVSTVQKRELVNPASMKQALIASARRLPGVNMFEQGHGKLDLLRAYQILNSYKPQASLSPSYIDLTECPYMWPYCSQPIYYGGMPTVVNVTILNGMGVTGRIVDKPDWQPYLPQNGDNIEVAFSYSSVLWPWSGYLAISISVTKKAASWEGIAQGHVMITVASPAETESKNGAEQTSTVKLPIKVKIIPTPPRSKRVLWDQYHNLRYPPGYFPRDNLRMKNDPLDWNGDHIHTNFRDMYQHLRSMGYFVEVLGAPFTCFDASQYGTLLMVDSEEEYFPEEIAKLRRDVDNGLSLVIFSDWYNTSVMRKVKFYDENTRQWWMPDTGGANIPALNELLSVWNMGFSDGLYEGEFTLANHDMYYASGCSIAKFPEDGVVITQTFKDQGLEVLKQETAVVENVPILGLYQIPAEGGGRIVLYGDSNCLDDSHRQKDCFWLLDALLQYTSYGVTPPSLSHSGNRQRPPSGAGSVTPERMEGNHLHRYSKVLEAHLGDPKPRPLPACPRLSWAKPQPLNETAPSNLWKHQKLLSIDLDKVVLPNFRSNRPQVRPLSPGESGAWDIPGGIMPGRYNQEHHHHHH

[4] = target: T5, 98 kDa shed form of SKI-1 (sSKI-1) (human, UniProt Q14703 187-996); experiment: cell-based or functional assay
T5 sequence: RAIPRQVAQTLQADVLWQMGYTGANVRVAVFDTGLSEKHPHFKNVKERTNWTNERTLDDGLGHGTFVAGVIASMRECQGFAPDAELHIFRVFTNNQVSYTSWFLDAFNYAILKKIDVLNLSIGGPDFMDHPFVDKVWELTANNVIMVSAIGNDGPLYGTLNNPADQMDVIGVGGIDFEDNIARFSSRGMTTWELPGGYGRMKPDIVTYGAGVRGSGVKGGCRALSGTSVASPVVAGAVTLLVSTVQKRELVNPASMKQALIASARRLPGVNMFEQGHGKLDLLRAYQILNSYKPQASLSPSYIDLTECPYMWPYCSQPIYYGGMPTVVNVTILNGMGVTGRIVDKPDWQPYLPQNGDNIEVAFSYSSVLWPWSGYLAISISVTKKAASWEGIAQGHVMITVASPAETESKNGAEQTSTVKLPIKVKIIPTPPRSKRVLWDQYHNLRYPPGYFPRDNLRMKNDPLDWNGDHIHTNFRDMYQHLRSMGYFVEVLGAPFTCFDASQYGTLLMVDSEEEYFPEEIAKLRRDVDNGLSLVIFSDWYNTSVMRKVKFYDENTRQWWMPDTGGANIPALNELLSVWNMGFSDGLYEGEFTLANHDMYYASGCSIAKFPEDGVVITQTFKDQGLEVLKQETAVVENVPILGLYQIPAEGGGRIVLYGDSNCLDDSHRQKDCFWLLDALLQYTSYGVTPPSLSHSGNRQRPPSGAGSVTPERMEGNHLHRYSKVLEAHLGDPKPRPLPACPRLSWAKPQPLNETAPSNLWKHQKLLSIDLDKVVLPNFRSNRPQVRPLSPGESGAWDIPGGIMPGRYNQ

[5] = COS-7 cells co-expressing proBDNF and SKI-1

Molecule: α1-antitrypsin Portland [α1-PDX]
- level of the 28 kDa BDNF product (SKI-1): neither α1-PIT nor α1-PDX affect the level of the 28 kDa product
- production of the 14 kDa BDNF [1]: selectively blocks the production of the 14 kDa BDNF

Molecule: KAGSRGLTSLADTF [I]
- activity retained (BTMD-SKI-1 [2]; at pH 5.0): about 30%
- activity retained (BTMD-SKI-1 [2]; at pH 8.5): ~55%

Molecule: CNc1ccc2oc(C[C@H]3O[C@@]4(CC[C@H]3C)O[C@H]([C@H](C)C(=O)c3ccc[nH]3)[C@H](C)C[C@H]4C)nc2c1C(=O)O [Peptide A23187]
- level of the 28 kDa BDNF product (SKI-1; [5]): abolished
- production of the 14 kDa BDNF [1, 5]: abolished

B1: PS2 (SKI-1 prosegment construct extending to Ala188, hexa-His tag) (other)
chain: KKHLGDRLEKKSFEKAPCPGCSHLTLKVEFSSTVVEYEYIVAFNGYFTAKARNSFISSALKSSEVDNWRIIPRNNPSSDYPSDFEVIQIKEKQKAGLLTLEDHPNIKRVTPQRKVFRSLKYAESDPTVPCNETRWSQKWQSSRPLRRASLSLGSGFWHATGRHSSRRLLRAHHHHHH
notes: Bacterial recombinant (pET24b, E. coli BL21); The start at aa 18 follows the sense primer and claim 3; Any vector-derived residues are not described
- inhibitory potency after digestion with carboxypeptidase B to eliminate the His-tag (BTMD-hSKI-1): not affected
- Ki (BTMD-hSKI-1; read-out: Ki(app)): 97 nM
- Ki (BTMD-SKI-1 [3]): 97.5 nM

B2: peptide XI, Q-hSKI-1 (134-142): Abz-RSLKYAESD-Y(NO2)-A (peptide)
peptide: [2Abz]RSLKYAESD[Tyr(3-NO2)]A-NH2
modifications: N-terminus assumed
SMILES: CC(C)C[C@H](NC(=O)[C@H](CO)NC(=O)[C@H](CCCNC(=N)N)NC(=O)c1ccccc1N)C(=O)N[C@@H](CCCCN)C(=O)N[C@@H](Cc1ccc(O)cc1)C(=O)N[C@@H](C)C(=O)N[C@@H](CCC(=O)O)C(=O)N[C@@H](CO)C(=O)N[C@@H](CC(=O)O)C(=O)N[C@@H](Cc1ccc(O)c([N+](=O)[O-])c1)C(=O)N[C@@H](C)C(N)=O
- kinetic parameters relative to peptide IV [4]: ~16 fold

B3: peptide X, Q-hSKI-1 (132-142): Abz-VFRSLKYAESD-Y(NO2)-A (peptide)
peptide: [2Abz]VFRSLKYAESD[Tyr(3-NO2)]A-NH2
modifications: N-terminus assumed
SMILES: CC(C)C[C@H](NC(=O)[C@H](CO)NC(=O)[C@H](CCCNC(=N)N)NC(=O)[C@H](Cc1ccccc1)NC(=O)[C@@H](NC(=O)c1ccccc1N)C(C)C)C(=O)N[C@@H](CCCCN)C(=O)N[C@@H](Cc1ccc(O)cc1)C(=O)N[C@@H](C)C(=O)N[C@@H](CCC(=O)O)C(=O)N[C@@H](CO)C(=O)N[C@@H](CC(=O)O)C(=O)N[C@@H](Cc1ccc(O)c([N+](=O)[O-])c1)C(=O)N[C@@H](C)C(N)=O
- kinetic parameters relative to peptide IV [4]: ~3 fold

B4: PS3 (SKI-1 prosegment construct extending to Leu197, hexa-His tag) (other)
chain: KKHLGDRLEKKSFEKAPCPGCSHLTLKVEFSSTVVEYEYIVAFNGYFTAKARNSFISSALKSSEVDNWRIIPRNNPSSDYPSDFEVIQIKEKQKAGLLTLEDHPNIKRVTPQRKVFRSLKYAESDPTVPCNETRWSQKWQSSRPLRRASLSLGSGFWHATGRHSSRRLLRAIPRQVAQTLHHHHHH
notes: Bacterial recombinant (pET24b, E. coli BL21); Any vector-derived residues are not described
- Ki (BTMD-SKI-1 [3]): 127 nM
